Experimental findings from publication PMC3605776 are described below.

Series [1] addresses T1, KSRP KH3 (Homo sapiens, UniProt Q92945 322-386).
T1 sequence: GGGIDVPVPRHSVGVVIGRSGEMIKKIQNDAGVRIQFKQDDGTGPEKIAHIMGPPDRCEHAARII
As to the kind of experiment: NMR titration.

Series [2] has as its target T1, KSRP KH3. As to the kind of experiment: NMR structure, NMR titration, ITC.
In series [3] the target is T2, KSRP KH1-KH4 (referred to as KSRP) (Homo sapiens, UniProt Q92945 68-525).
T2 sequence: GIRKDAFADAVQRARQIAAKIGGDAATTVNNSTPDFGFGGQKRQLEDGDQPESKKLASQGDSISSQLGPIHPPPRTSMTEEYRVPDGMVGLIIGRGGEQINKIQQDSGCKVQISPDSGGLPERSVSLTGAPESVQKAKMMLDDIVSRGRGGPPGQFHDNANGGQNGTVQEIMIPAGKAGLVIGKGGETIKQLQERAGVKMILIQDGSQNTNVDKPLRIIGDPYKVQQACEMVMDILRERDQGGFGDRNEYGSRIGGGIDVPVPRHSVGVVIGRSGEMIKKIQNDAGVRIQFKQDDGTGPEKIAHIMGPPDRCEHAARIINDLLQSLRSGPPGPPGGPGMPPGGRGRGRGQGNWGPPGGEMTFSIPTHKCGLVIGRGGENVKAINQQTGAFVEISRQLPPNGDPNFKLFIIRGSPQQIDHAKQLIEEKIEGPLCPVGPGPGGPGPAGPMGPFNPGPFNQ
In words: NMR 13C-1H.

B1: AGGGU G3A (ssRNA)
RNA: AGAGU
For the molecule B1, the binding result in series [1] is recorded as “binds”.

B2: AGGGU (ssRNA)
RNA: AGGGU
Regarding B2, the binding result in series [2] and in series [3] was “binds” each time.

B3: AGGGU G3U (ssRNA)
RNA: AGUGU
Take B3: the binding result in series [1] was “binds”.
